The supplement of paper PMC7877785
± gives the uncertainty stated by the source.

Assay: self-splicing fitness, log relative to wild type (ln ratio); higher = more splicing; Tetrahymena group I intron in knt gene, E. coli kanamycin selection, DiMSum; sequences stand for … in CUCUCU…GGAGGGAAAAGUUAUCAGGCAUGCACCUGGUAGCUAGUCUUUAAACCAAUAGAUUGCAUCGGUUUAAAAGGCAAGACCGUCAAAUUGCGGGAAAGGGGUCAACAGCCGUUCAGUACCAAGUCUCAGGGGAAACUUUGAGAUGGCCUUGCAAAGGGUAUGGUAAUAAGCUGACGGACAUGGUCCUAACCACGCAGCCAAGUCCUAAGUCAACAGAUCUUCUGUUGAUAUGGAUGCAGUUCACAGACUAAAUGUCGGUCGGGGAAGAUGUAUUCUUCUCAUAAGAUAUAGUCGGACCUCUCCUUAAUGGGAGCUAGCGGAUGAAGUGAUGCAACACUGGAGCCGCUGGGAACUAAUUUGUAUGCGAAAGUAUAUUGAUUAGUUUUGGAGUACUCGUGGUCG
In short: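 Library with all eight P1ex-region intron nucleotides randomised, intron inside the knt kanamycin-resistance gene on pET-22b(+), in E. coli BL21(DE3). Cells grew overnight at 37°C or 30°C on LB agar with or without 25 μg/mL kanamycin (plus 100 μg/mL carbenicillin, 50 μM IPTG, 0.2% rhamnose), in six replicate transformations. Pooled colonies were amplicon-sequenced on Illumina HiSeq 2500. DiMSum fitness is the error-weighted combination of wild-type-normalised replicate fold changes, kanamycin versus none.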

Sequence | self-splicing fitness (ln) (30 °C) | self-splicing fitness (ln) (37 °C)
AGCAAGCAAUAUUACGUAUG | -3.61 ± 0.14 | -3.29 ± 0.18
AGCAAGCAAUAUUACGUCAG | -2.89 ± 0.16 | -1.55 ± 0.18
AGCAAGCAAUAUUACGUCAU | -1.5 ± 0.078 | -1.23 ± 0.084
AGCAAGCAAUAUUACGUCCU | 0.639 ± 0.099 | 0.541 ± 0.11
AGCAAGCAAUAUUACGUCGA | -1.99 ± 0.11 | -0.323 ± 0.097
AGCAAGCAAUAUUACGUUCA | -0.99 ± 0.081 | -0.464 ± 0.1
AGCAAGCAAUAUUACGUUUU | -2.46 ± 0.077 | -1.71 ± 0.09
AGCCAGCAAUAUUACGAAAC | -3.51 ± 0.48 | -1.38 ± 0.26
AGCCAGCAAUAUUACGAAGG | -3.89 ± 0.41 | -2.92 ± 0.31
AGCCAGCAAUAUUACGACGG | -4.18 ± 0.42 | -1.35 ± 0.25
AGCCAGCAAUAUUACGAGCC |  | -0.75 ± 0.32
AGCCAGCAAUAUUACGCAAA | -2.91 ± 0.34 | -2.36 ± 0.2
AGCCAGCAAUAUUACGCAGG | -3.44 ± 0.14 | -2.62 ± 0.18
AGCCAGCAAUAUUACGCAUG | -2.87 ± 0.11 | -2.2 ± 0.12
AGCCAGCAAUAUUACGCGAU | -1.24 ± 0.14 | -2.93 ± 0.32
AGCCAGCAAUAUUACGCGUA | -1.99 ± 0.13 | -1.44 ± 0.14
AGCCAGCAAUAUUACGGAGU | -2.69 ± 0.19 | -1.66 ± 0.14
AGCCAGCAAUAUUACGGGGC | -3.88 ± 0.15 | -3.13 ± 0.14
AGCCAGCAAUAUUACGUCCU | -0.436 ± 0.071 | 0.142 ± 0.078
AGCCAGCAAUAUUACGUCGU | -1.75 ± 0.072 | -1.58 ± 0.086
AGCCAGCAAUAUUACGUGCG | -0.906 ± 0.077 | -0.256 ± 0.087
AGCGAGCAAUAUUACGAACA | -2.63 ± 0.23 | -1.89 ± 0.2
AGCGAGCAAUAUUACGACGA | -1.13 ± 0.22 | -2.2 ± 0.31
AGCGAGCAAUAUUACGAUAA |  | -2.17 ± 0.24

Sequence | self-splicing fitness (ln) (30 °C) | self-splicing fitness (ln) (37 °C)
AGCGAGCAAUAUUACGAUAC | -3.47 ± 0.47 | -2.29 ± 0.39
AGCGAGCAAUAUUACGAUAG | -3.64 ± 0.43 | -1.76 ± 0.35
AGCGAGCAAUAUUACGAUAU | -4.12 ± 0.29 | -1.99 ± 0.19
AGCGAGCAAUAUUACGAUUC | -1.93 ± 0.16 | -2.02 ± 0.27
AGCGAGCAAUAUUACGAUUG | -4.39 ± 0.42 | -1.52 ± 0.34
AGCGAGCAAUAUUACGCAUC | -2.51 ± 0.36 | -2.33 ± 0.33
AGCGAGCAAUAUUACGCCUU | -1.94 ± 0.25 | -2.62 ± 0.48
AGCGAGCAAUAUUACGCGUA | -2.95 ± 0.34 | -1.7 ± 0.18
AGCGAGCAAUAUUACGGCAU | -1.45 ± 0.12 | -0.286 ± 0.14
AGCGAGCAAUAUUACGUAAA | -2.53 ± 0.18 | -2.03 ± 0.31
AGCGAGCAAUAUUACGUACU | -0.777 ± 0.088 | -0.674 ± 0.092
AGCGAGCAAUAUUACGUUCC |  | -1.3 ± 0.24
AGCUAGCAAUAUUACGAACU | -0.899 ± 0.12 | 0.179 ± 0.16
AGCUAGCAAUAUUACGACAC | -2.07 ± 0.15 | -1.11 ± 0.16
AGCUAGCAAUAUUACGAGCU | -2.65 ± 0.19 | -1.92 ± 0.21
AGCUAGCAAUAUUACGAGUG | -0.877 ± 0.066 | -0.529 ± 0.084
AGCUAGCAAUAUUACGAUAA | -2.14 ± 0.12 | -1.12 ± 0.14
AGCUAGCAAUAUUACGCCUA | -0.93 ± 0.14 | -0.324 ± 0.13
AGCUAGCAAUAUUACGCCUG | -1.6 ± 0.13 | -1.55 ± 0.17
AGCUAGCAAUAUUACGCUAU | -2.89 ± 0.21 | -1.42 ± 0.18
AGCUAGCAAUAUUACGCUGG | -3.58 ± 0.2 | -2.31 ± 0.3
AGCUAGCAAUAUUACGCUUG | -3.96 ± 0.26 | -2.9 ± 0.25
AGCUAGCAAUAUUACGGAAU | -1.13 ± 0.16 | -2.07 ± 0.27
AGCUAGCAAUAUUACGGAGA | -2.24 ± 0.22 | -3.14 ± 0.37
